The source of these data is patent publication US20180155451A1 (published 2018).

Test [1] deals with T1, FcγRIIb extracellular domain with C-terminal His tag (human, UniProt P31994 43-217).
T1 construct: extracellular domain; Expressed in FreeStyle293 cells; used as analyte in Biacore; also called FcgRIIb; 2b; not shown: C-terminal His tag
T1 sequence (looked up): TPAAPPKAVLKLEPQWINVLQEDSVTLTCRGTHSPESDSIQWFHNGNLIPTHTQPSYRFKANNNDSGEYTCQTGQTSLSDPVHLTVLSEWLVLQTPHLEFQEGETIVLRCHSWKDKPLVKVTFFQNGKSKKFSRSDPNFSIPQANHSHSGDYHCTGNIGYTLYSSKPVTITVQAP
Put plainly: SPR (Biacore), antibody captured on antigen-peptide chip, FcgRIIb as analyte; binding relative to GpH7-B3/GpL16-k0 (HoCon Ab) = 100. Background: Surface plasmon resonance follows binding to a sensor surface in real time, without labels.

Test [2] addresses T2, FcγRIIa H (human, UniProt P12318 34-217).
T2 construct: extracellular domain; also called FcγRIIa type H; 2aH
T2 sequence (looked up): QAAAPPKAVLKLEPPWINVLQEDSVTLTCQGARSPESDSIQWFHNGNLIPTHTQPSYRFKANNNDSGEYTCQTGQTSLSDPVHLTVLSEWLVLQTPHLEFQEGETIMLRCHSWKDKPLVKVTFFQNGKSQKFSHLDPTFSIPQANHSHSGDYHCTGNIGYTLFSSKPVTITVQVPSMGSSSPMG
The test can be described thus: SPR; He/Con_2aH divided by He/Con_2b (FcγRIIb). On the procedure: The heterodimerized antibodies He Abs in which one of the H chains was introduced with an alteration were assayed for their binding activities to each activating FcγR and inhibitory FcγR according to the method described in Example 4. […] The activating FcγRs in FIGS. 26, 27, 28, and 29 are FcγRIa, FcγRIIa (R), FcγRIIa (H), and FcγRIIIa, respectively.
Analysis of interaction between objective antibody and the FcγR was carried out using Biacore T100 (GE Healthcare). HBS-EP+ (GE Healthcare) was used as the running buffer, and the measurement temperature was set to 25° C. Chips produced by immobilizing the antigen peptide by the amine coupling method to a Series S Sencor Chip CM5 (GE Healthcare), or alternatively, chips produced by allowing preliminarily biotinylated antigen peptides to interact with and immobilize onto a Series S Sensor Chip SA (certified) (GE Healthcare) were used. Antibodies of interest were captured onto an antigen peptide-immobilized chip, and allowed to interact to each FcγR diluted with running buffer. To regenerate and repeatedly use the chip, the antibodies captured on the chip were washed off by reacting 10 mM glycine-HCl, pH 1.5.

For test [3], the target named is T2, FcγRIIa H. The test can be described thus: SPR (Biacore), relative binding vs GpH7-A5/GpH7-B3/GpL16-k0.
Another test has as its target T3, FcγRIIb (human, UniProt P31994 43-217).
T3 construct: extracellular domain; also called 2b
T3 sequence (looked up): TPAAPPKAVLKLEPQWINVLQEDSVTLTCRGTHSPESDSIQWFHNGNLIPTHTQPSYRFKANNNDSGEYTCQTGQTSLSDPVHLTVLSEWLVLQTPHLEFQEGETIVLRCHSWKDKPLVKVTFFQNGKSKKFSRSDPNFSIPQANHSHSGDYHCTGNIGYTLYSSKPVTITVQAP
Described as above.

B1: GpH7-B3 variant K334_16H/GpL16-k0 (Ho Ab) (antibody, human IgG1, kappa)
heavy: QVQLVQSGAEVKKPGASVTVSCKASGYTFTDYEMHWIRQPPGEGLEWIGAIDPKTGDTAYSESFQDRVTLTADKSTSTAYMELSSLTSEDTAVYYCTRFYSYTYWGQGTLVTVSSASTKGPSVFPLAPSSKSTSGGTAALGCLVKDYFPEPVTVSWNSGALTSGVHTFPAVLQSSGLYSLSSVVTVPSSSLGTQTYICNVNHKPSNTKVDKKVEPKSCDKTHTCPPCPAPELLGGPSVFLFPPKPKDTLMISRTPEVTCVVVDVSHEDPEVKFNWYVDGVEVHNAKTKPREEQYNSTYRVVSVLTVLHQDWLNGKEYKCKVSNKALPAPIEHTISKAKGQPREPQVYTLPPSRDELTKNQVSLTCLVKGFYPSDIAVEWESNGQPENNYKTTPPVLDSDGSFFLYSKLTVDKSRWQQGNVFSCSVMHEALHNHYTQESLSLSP
light: DIVMTQSPLSLPVTPGEPASISCQASESLVHSNRNTYLHWYLQKPGQSPQLLIYKVSNRFSGVPDRFSGSGSGTDFTLKISRVEAEDVGVYYCSQNTHVPPTFGQGTKVEIERTVAAPSVFIFPPSDEQLKSGTASVVCLLNNFYPREAKVQWKVDNALQSGNSQESVTEQDSKDSTYSLSSTLTLSKADYEKHKVYACEVTHQGLSSPVTKSFNRGEC
notes: Substitution in both H chains; position in EU numbering; also called K334H homodimerized antibody
In the case of B1, the Ho/Con_2b in test [1] is 124 % of control.

B2: GpH7-A5/GpH7-B3 variant Y300_10E/GpL16-k0 (antibody, human IgG1, kappa)
heavy 1: not shown
heavy 2: not shown
light: DIVMTQSPLSLPVTPGEPASISCQASESLVHSNRNTYLHWYLQKPGQSPQLLIYKVSNRFSGVPDRFSGSGSGTDFTLKISRVEAEDVGVYYCSQNTHVPPTFGQGTKVEIERTVAAPSVFIFPPSDEQLKSGTASVVCLLNNFYPREAKVQWKVDNALQSGNSQESVTEQDSKDSTYSLSSTLTLSKADYEKHKVYACEVTHQGLSSPVTKSFNRGEC
notes: heterodimerized IgG1, mutation in one H chain only; also called He Ab
As for B2, in the test with FcγRIIa H [2], the “He_2aH/2b (IIaH/IIb)” value came out at 0.73 ratio. Further, in the test with FcγRIIa H [3], the He/Con_2aH was 97.2 % of control He Ab (=100). Also, the He/Con_2b with FcγRIIb was 134 % of control He Ab (=100).

B3: GpH7-B3 variant L328_07I/GpL16-k0 (Ho Ab) (antibody, human IgG1, kappa)
heavy: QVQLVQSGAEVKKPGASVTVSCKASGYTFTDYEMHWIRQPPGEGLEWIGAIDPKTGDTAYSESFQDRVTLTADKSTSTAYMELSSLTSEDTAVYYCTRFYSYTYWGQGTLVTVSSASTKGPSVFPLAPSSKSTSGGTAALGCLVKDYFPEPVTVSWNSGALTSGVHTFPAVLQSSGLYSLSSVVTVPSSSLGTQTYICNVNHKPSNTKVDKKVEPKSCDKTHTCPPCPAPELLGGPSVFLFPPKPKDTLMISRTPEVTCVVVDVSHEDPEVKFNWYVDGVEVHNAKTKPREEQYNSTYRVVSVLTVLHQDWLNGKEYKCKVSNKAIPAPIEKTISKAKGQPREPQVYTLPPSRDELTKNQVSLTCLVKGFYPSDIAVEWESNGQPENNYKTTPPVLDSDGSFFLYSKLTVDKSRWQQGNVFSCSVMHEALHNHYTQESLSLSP
light: DIVMTQSPLSLPVTPGEPASISCQASESLVHSNRNTYLHWYLQKPGQSPQLLIYKVSNRFSGVPDRFSGSGSGTDFTLKISRVEAEDVGVYYCSQNTHVPPTFGQGTKVEIERTVAAPSVFIFPPSDEQLKSGTASVVCLLNNFYPREAKVQWKVDNALQSGNSQESVTEQDSKDSTYSLSSTLTLSKADYEKHKVYACEVTHQGLSSPVTKSFNRGEC
notes: Substitution in both H chains; position in EU numbering; also called L328I homodimerized antibody
For the molecule B3, in test [1], the Ho/Con_2b was 188 % of control.

B4: GpH7-A5/GpH7-B3 variant V266_16H/GpL16-k0 (antibody, human IgG1, kappa)
heavy 1: not shown
heavy 2: not shown
light: DIVMTQSPLSLPVTPGEPASISCQASESLVHSNRNTYLHWYLQKPGQSPQLLIYKVSNRFSGVPDRFSGSGSGTDFTLKISRVEAEDVGVYYCSQNTHVPPTFGQGTKVEIERTVAAPSVFIFPPSDEQLKSGTASVVCLLNNFYPREAKVQWKVDNALQSGNSQESVTEQDSKDSTYSLSSTLTLSKADYEKHKVYACEVTHQGLSSPVTKSFNRGEC
notes: as for B2
Regarding B4, the “He_2aH/2b (IIaH/IIb)” value in the test with FcγRIIa H [2] was 0.37 ratio. Besides, in the test with FcγRIIa H [3], the He/Con_2aH was 21.2 % of control He Ab (=100). The He/Con_2b with FcγRIIb was 57.2 % of control He Ab (=100).

B5: GpH7-A5/GpH7-B3 variant S298_08L/GpL16-k0 (antibody, human IgG1, kappa)
heavy 1: not shown
heavy 2: not shown
light: DIVMTQSPLSLPVTPGEPASISCQASESLVHSNRNTYLHWYLQKPGQSPQLLIYKVSNRFSGVPDRFSGSGSGTDFTLKISRVEAEDVGVYYCSQNTHVPPTFGQGTKVEIERTVAAPSVFIFPPSDEQLKSGTASVVCLLNNFYPREAKVQWKVDNALQSGNSQESVTEQDSKDSTYSLSSTLTLSKADYEKHKVYACEVTHQGLSSPVTKSFNRGEC
notes: as for B2
For the molecule B5, in the test with FcγRIIa H [2], the “He_2aH/2b (IIaH/IIb)” value stood at 0.78 ratio. Also, in the test with FcγRIIa H [3], the He/Con_2aH is 85 % of control He Ab (=100). Further, in the test with FcγRIIb, the He/Con_2b was 108 % of control He Ab (=100).

B6: GpH7-A5/GpH7-B3 variant V266_19Q/GpL16-k0 (antibody, human IgG1, kappa)
heavy 1: not shown
heavy 2: not shown
light: DIVMTQSPLSLPVTPGEPASISCQASESLVHSNRNTYLHWYLQKPGQSPQLLIYKVSNRFSGVPDRFSGSGSGTDFTLKISRVEAEDVGVYYCSQNTHVPPTFGQGTKVEIERTVAAPSVFIFPPSDEQLKSGTASVVCLLNNFYPREAKVQWKVDNALQSGNSQESVTEQDSKDSTYSLSSTLTLSKADYEKHKVYACEVTHQGLSSPVTKSFNRGEC
notes: as for B2
Regarding B6, the “He_2aH/2b (IIaH/IIb)” value with FcγRIIa H [2] stood at 0.52 ratio. The He/Con_2aH with FcγRIIa H [3] was 46.4 % of control He Ab (=100). The He/Con_2b with FcγRIIb was 89.2 % of control He Ab (=100).

B7: GpH7-B3 variant K334_18N/GpL16-k0 (Ho Ab) (antibody, human IgG1, kappa)
heavy: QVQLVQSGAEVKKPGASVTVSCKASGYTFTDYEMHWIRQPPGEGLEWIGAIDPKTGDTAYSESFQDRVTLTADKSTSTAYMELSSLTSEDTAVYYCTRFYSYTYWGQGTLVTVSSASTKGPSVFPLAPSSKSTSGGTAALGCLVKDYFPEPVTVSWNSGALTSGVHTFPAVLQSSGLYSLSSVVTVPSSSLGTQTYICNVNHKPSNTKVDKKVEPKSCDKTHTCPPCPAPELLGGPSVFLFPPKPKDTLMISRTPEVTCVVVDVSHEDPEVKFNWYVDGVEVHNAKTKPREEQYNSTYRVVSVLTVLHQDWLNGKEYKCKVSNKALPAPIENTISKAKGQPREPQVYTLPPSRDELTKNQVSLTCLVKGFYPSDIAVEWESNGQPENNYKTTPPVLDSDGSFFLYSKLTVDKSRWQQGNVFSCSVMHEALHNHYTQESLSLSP
light: DIVMTQSPLSLPVTPGEPASISCQASESLVHSNRNTYLHWYLQKPGQSPQLLIYKVSNRFSGVPDRFSGSGSGTDFTLKISRVEAEDVGVYYCSQNTHVPPTFGQGTKVEIERTVAAPSVFIFPPSDEQLKSGTASVVCLLNNFYPREAKVQWKVDNALQSGNSQESVTEQDSKDSTYSLSSTLTLSKADYEKHKVYACEVTHQGLSSPVTKSFNRGEC
notes: Substitution in both H chains; position in EU numbering; also called K334N homodimerized antibody
As for B7, the Ho/Con_2b in test [1] is 128 % of control.

B8: GpH7-A5/GpH7-B3 variant S267_20W/GpL16-k0 (antibody, human IgG1, kappa)
heavy 1: not shown
heavy 2: not shown
light: DIVMTQSPLSLPVTPGEPASISCQASESLVHSNRNTYLHWYLQKPGQSPQLLIYKVSNRFSGVPDRFSGSGSGTDFTLKISRVEAEDVGVYYCSQNTHVPPTFGQGTKVEIERTVAAPSVFIFPPSDEQLKSGTASVVCLLNNFYPREAKVQWKVDNALQSGNSQESVTEQDSKDSTYSLSSTLTLSKADYEKHKVYACEVTHQGLSSPVTKSFNRGEC
notes: as for B2
B8: the “He_2aH/2b (IIaH/IIb)” value with FcγRIIa H [2] was found to be 0.66 ratio. Moreover, the He/Con_2aH with FcγRIIa H [3] was 37.9 % of control He Ab (=100). Also, the He/Con_2b with FcγRIIb is 57.2 % of control He Ab (=100).
